The record followed here is patent US20260183437A1 (ABDERA THERAPEUTICS, published 2026).

The target of test [1] is T1, DLL3 on cells (UniProt Q9NYJ7 27-618, limits assumed).
T1 construct: whole, on cells; also called DLL3 on SHP-77, NCI-H82 (H82), NCI-H69 and HEK-DLL3 cells
T1 sequence (looked up): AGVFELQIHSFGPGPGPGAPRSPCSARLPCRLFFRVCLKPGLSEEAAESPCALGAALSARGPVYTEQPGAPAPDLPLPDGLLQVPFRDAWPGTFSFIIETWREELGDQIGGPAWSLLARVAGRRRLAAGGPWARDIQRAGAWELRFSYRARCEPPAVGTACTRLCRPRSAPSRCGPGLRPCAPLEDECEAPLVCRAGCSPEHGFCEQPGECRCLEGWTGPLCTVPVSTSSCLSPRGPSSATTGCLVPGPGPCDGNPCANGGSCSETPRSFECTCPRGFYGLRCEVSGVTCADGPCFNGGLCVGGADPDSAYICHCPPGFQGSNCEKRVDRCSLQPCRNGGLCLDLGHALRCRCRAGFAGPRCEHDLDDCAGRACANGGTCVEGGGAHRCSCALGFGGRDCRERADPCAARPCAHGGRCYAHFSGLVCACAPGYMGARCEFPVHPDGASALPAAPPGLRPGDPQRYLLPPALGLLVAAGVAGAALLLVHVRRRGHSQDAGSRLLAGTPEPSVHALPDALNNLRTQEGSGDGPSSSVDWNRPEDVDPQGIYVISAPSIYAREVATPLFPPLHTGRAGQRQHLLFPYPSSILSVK
Nature of the test: flow cytometry on HEK-DLL3 cells. In general terms: In flow cytometry, cells or beads pass a laser one at a time.

Test [2] has as its target T1, DLL3 on cells. Nature of the test: flow cytometry on SHP-77 cells.

B1: Rovalpituzumab (antibody, V domains shown)
VH: QVQLVQSGAEVKKPGASVKVSCKASGYTFTNYGMNWVRQAPGQGLEWMGWINTYTGEPTYADDFKGRVTMTTDTSTSTAYMELRSLRSDDTAVYYCARIGDSSPSDYWGQGTLVTVSS
VL: EIVMTQSPATLSVSPGERATLSCKASQSVSNDVVWYQQKPGQAPRLLIYYASNRYTGIPARFSGSGSGTEFTLTISSLQSEDFAVYYCQQDYTSPWTFGQGTKLEIK
As a reminder, the EC50 is the concentration giving half of the maximal effect. High values mean a less potent agent, low ones a more potent agent. Turning to B1, the values for the EC50 with DLL3 on cells [1] and with DLL3 on cells [2] were 0.06 nM and 0.11 nM, respectively.
